Data taken from publication PMC9811728.

What was measured:
[1] = molecular target: SC-CAT (SpyCatcher fused to the N-terminus of catalase) (Bacillus subtilis strain 168); assay: SEC; elution profiles compared with molecular weight standards
[2] = molecular target: SC-LOX (SpyCatcher fused to the N-terminus of lactate oxidase) (Aerococcus viridans); assay: as above

Substance	stoichiometry N [1]	stoichiometry N [2]
SC-CAT (SpyCatcher fused to the N-terminus of catalase) (enzyme)	4	–
SC-LOX (SpyCatcher fused to the N-terminus of lactate oxidase) (enzyme)	–	4
